Source: US7205275 (dated 2007)
Where no end group is shown, it is not given here. [ ]: non-standard residue; d: D form. Fc = immunoglobulin Fc domain fused to the peptide (peptibody)

Tests used:
mouse Ang-2 [1] = target: T1, mouse Ang-2 (mouse, UniProt O35608); test: SPR
T1 chain: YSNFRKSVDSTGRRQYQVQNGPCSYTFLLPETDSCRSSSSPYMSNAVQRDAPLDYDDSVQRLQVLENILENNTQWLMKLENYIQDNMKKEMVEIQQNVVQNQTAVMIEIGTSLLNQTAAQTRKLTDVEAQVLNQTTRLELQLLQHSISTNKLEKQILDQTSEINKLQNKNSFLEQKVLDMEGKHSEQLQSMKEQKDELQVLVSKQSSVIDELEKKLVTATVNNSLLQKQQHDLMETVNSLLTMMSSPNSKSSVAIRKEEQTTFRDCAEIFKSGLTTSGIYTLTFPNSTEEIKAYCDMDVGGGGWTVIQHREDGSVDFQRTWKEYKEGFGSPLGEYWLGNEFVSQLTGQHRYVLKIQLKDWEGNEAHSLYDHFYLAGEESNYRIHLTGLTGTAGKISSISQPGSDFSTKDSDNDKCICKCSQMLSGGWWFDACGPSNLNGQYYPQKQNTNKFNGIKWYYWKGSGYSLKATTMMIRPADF

human Ang-2 [2] = target: T2, human Ang-2 (human, UniProt O15123); test: SPR
T2 chain: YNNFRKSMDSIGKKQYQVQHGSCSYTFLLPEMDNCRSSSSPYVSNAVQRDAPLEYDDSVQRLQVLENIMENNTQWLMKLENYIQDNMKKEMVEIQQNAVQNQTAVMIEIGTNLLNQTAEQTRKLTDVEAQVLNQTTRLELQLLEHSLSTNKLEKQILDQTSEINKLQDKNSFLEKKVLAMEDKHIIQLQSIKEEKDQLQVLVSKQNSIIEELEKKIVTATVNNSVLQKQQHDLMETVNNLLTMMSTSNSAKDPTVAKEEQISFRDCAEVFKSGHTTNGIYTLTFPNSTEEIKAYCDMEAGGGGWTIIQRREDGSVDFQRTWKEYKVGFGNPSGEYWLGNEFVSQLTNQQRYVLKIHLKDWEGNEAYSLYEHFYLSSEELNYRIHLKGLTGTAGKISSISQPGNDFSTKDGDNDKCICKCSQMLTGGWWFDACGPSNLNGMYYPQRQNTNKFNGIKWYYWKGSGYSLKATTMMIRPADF

mouse Ang-2 [3] = target: T1, mouse Ang-2; test: ELISA
human Ang-1 [4] = target: T3, human Ang-1 (human, UniProt Q15389); test: ELISA
T3 chain: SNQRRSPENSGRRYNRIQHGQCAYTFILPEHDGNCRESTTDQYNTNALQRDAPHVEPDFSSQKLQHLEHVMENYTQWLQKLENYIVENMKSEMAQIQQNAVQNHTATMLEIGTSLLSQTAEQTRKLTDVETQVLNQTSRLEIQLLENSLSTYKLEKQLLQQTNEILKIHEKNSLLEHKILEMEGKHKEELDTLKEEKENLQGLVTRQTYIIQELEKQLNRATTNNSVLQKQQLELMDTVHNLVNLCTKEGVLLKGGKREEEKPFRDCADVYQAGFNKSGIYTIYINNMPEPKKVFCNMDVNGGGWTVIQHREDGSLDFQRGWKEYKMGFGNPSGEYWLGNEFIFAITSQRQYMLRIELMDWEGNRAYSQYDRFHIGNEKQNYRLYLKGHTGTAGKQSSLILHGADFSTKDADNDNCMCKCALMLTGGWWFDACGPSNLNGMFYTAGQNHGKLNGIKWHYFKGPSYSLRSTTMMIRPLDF

human Ang-2 [5] = target: T2, human Ang-2; test: ELISA
mouse Ang-2 [6] = target: T1, mouse Ang-2; test: competition ELISA vs Tie-2
human Ang-1 [7] = target: T3, human Ang-1; test: competition ELISA vs Tie-2
human Ang-2 [8] = target: T2, human Ang-2; test: competition ELISA vs Tie-2

B1: Con4 (N) (peptide)
chain: MGAQQEECEWDPWTCEHMLEGGGGG[Fc]
modifications: not fully specified (bridges); printed as MGAQQEECEWDPWTCEHMLEGGGGG-Fc; cysteine pairing not given here; also: Fc fusion domain at position 26
Kd (mouse Ang-2 [1]): 0.6 nM | Kd (human Ang-2 [2]): 0.67 nM | EC50 (mouse Ang-2 [3]): 0.07 nM | binding result (human Ang-1 [4]): no binding | EC50 (human Ang-2 [5]): 0.03 nM | IC50 (mouse Ang-2 [6]): 0.72 nM | IC50 (human Ang-1 [7]): > 1000 nM | IC50 (human Ang-2 [8]): 0.85 nM
